B1: SSAP_162: SEQ ID NO: 331; Helcococcus sueciensis (protein, listed as Helcococcus sueciensis)
chain: AQAKELLENKTNNTVKKSEKQTMENLLTLMADEIKKALPENVKSERFRRIALTAFNGNKDLQQCEPTSFLAAMMQSAQLGLEPNTPLGQAYLIPYNNSKKNIKEVQFQVGYKGMLDLAHRTNQYKNIQANIVYEKDEFDIEYGLNPKLKHIPNMKEDRGQAIGYYAVYNLINGGQGFEYMTRAEVEKHAQKFSKTYRNGPWQTDFDEMAKKTVLKKVLKYAPMSTELQEATAIDERVVNEENIKSKNEDKFVDVDWSYVDDVEEDVIE
B2: SSAP_101: SEQ ID NO: 270; Halomonadaceae bacterium R4HLG17 (protein)
chain: SEVATQDTLGKELQQHSGQQKKPMPTTIQGMLKDPRFTSQIARALPKHITPDRITRIALTEVNKTPALGKCDPVTLFGSIIQSAQLGLELGGALGHAYLVPYGNQAQFIIGYRGMIDLARRSGQMVSLQAHTVHDNDEFDFEYGLDEKLRHVPARGDRGPMVAVYSVAKLVGGGHQIEVMWKEDVDAIRSKSKAGNSGPWRDHYEEMAKKTAIRRLFKYLPVSVEMQKAVALDEQAEAGVQDNNVFDGEFSYGEAE
modifications: Halomonadaceae bacterium R4HLG17
B3: SSAP_263: SEQ ID NO: 432; Gulosibacter molinativorax (protein)
chain: TDLTEKIATKAVAVKKDPKIADLMKSYEPQFARSLGKSMDAAKFGQDALTAIKQTPKLLEADQRSLFGAIFLAAQLKLPVGGPLAQFHLTPRKVAGEMTVVPIIGYNGYIQLAMNTGLYSKVGAFTVHANDHFRTGANSERGEFYDYERATGDRGELTGVIGYAKVKGFDESSFVYLDAATVRERHRPKFWDKTPWASDEGEMFRKTAIRVLQKYLPKSIEAAPLALAAQADQATVRRVDGVDDLQIDHEDIAIAEVIEDD
modifications: Gulosibacter molinativorax
B4: SSAP_155: SEQ ID NO: 324; Staphylococcus nepalensis (protein, listed as Staphylococcus nepalensis)
chain: ATQNQFKNQLTQKKENNNQPQQKAVGPKQEISNLLDRMAPQIQKALPQHMSAERMARIAMTAVSSTPKLLECDPKSLIGALMQSSQIGLEPNTNLGQAYLIPYGKEVQLQVSYLGMIELANRSKQYKAIYAHEVYPEDYFEYQYGLQKDLIHKPADNPQSEPIGYYAVYHLLNGGYDFVYWSKAKIDDHARQFSKAVQKGWQSPWKTNFNAMAKKTVLKDLLKFAPKSIEMNNAVSSDSKAQQIDDDGNIIDVTDYSQVNDEPEQLQEGQ
B5: SSAP_142: SEQ ID NO: 311; Roseburia intestinalis (protein, listed as Roseburia intestinalis)
chain: GDIRSELAKKAEQTQGNTKLTKSMSIADLIKAMEPEIQKALPSVITPERFTRMALSALNTTPKLQECTPMSFLAALMNAAQLGLEPNTPLGQAYLIPYKNKNVLECQFQLGYRGMIDLAYRNGHMQSIEAQAVYENDVFSYALGLHPELVHKPTLEEKGALKAFYAIFRLDNGGFRFEVMGKTYIDWYANRYSKAFTSEFSPWKSNYEGMAKKTVIKQLLKYAPLKTEFQRALSTDETIKNSLNVDMGEVLSEDIIDMPCEEVA
B6: SSAP_68: SEQ ID NO: 237 (protein)
chain: TQQMPIEAQGEPTKELQQKAAVDRFNATLHQMQNEIARALPKHMTGDRFVRIVLTEVRKDPTLALCDPLTMFGSLLTAAALGLEPGLNGECWLVPRKNHGTLEAQLQVGYRGVVKLFWQNPAAAYLDTGYVCERDHFRFAKGLNPILEHTPAEGDRGKVVRYYAVAGLNTGARVFDVFTPAQIKTLRGGKVGSNGDIPDPEHWMERKTALLQVLKLMPKSTQLAAVPAADGRAHTISDAQQIFGGVDTSTGEVLEAEPVEGDAA
B7: SSAP_81: SEQ ID NO: 250 (protein)
chain: TDVKQELERKVGKQDSTAVRLTKNMSIPDMIKALEPEIRRALPAVLTPERFLRMALSAVNNTPKLAECTPMSFIAAMMNAAQLGLEPNTPLGQAYLIPYKNKNQLECQFQIGYKGIIDLAYRTGQMQMIQAHAVHEFDDFEYEYGLNPKLIHRPGDGNRGEITYFYGLFKLVNGGFGFEVMNREAMEAFAQQYSQSYGSQYSPWVKNFEDMAKKTVIKKALKYGPVKAEFQKAISMDETIKTEIAVDMTEVQNEESE
B8: SSAP_287: SEQ ID NO: 456; Leifsonia xyli subsp. xyli str. CTCB07 (protein, listed as Leifsonia xyli)
chain: AVKKNPTIEDYLIKYEPEFQRALGASMDAAKFAQDALTAIKQNPKIGHSDPRSLFGALFLAAQLKLPVGGPLAQFHLTTRTVKGNLTVVPIVGYGGYVQLIMNTGLYSRVSAFLIHAGDYFVTGANSERGEFYDFRRADSDRGEVKGVIAYAKVKGHNESSWVYIDAETMRAKHRPKYWESTPWADDAGEMFKKTGIRVLQKYLPKSVESLNVALAASADQAIVRKVDGVPDLDIQHDRDTETVAVPEQPVSVPQPGDET
B9: SSAP_276: SEQ ID NO: 445; Oceanobacillus sp. Castelsardo (protein, listed as Oceanobacillus sp.)
chain: ATNSTLKNQISNKKQGNNQVGKTQGTTMKQLLASPAVMNRFEEVLGKRANQFTASILGLYNSEKMLQKAEPMSVISSAMIAATLDLPVDKNLGYAWIVPYGGKAQFQMGYKGYIQLALRTGQYRNINVIEVYEGELKKWDRLTEEIELDFESRTSDKVIGYTGYFELINGFRKTVYWSKEDVEKHKKRFSKSDFGWKNDWDAMARKTVIRNMLNKWGILSIDMQKGMVEDSKDPVEVNEEFSSDVIDADYEVVGENEQQDFTVEENA
B10: SSAP_224: SEQ ID NO: 393; Clostridium tyrobutyricum (protein, listed as Clostridium tyrobutyricum)
chain: SDKKMVVLGESHKALSKLLETKQEALPKDFNKARFLQNCMTVLQDTKDIDKCQPISVARTMLKGAFLGLDFFNRECYAIPYGGNLQFQTDYKGEIKLAKKYSFNSIKDIYAKIVREGDDFQESIEDGRQTINFKPLPFNNGEIIGAFAVCLFQDGSMLYETMTKQEIEDIRNNFSKAKNSPAWVKTPGEMYKKTVLRRLCKLIELDFDSVETKKTYDETSEFEFGSANHEVSNFDKDDSNIIEADAEIQDDVQEGDGEDE
B11: SSAP_203: SEQ ID NO: 372; Oenococcus oeni (protein, listed as Oenococcus oeni)
chain: SNELKTILNAPTTKEKFDEVLGRNAQGYINSVLNAVGNSKLLQNASPNSILSGAMKAATLNLSIDPNLGYAYFVPYGHEAQLQIGYQGLIQLAQRSGQIKILNAAPIYDEQFKSLDPVTGKLTLNKKIVPDTNKKPTGYVAYLKTVTGFEHTEFMSYADIEKFAKRFSKSFNSSTSPWKTDFNAMAKKTLIKQVLKYAPMSIDLQTAVSADNDDIEPKDITPDEDKETVDKISNLISDNKQDDTLSQLEEVANANN
B12: SSAP_32: SEQ ID NO: 201 (protein)
chain: EFETDEEEKEMSNNQLSTQQAKRDIAIDTSVWTFQDVKRYFDPQNLLTEKQVGQALSLIKGRNLNPLANEVYIVAYKKKTGGTEFSLIVSKEAFLKRAAQNPNYEGFEAGVVTVDTDGVMHERKGALMLPGDTLVGGWARVYRKNFKVPVEIFVSREEYDKKQSTWNAMPATMIRKTALVNALREAFPEDLGNMYTEDDGGETFDRIKQAEPVESREDVMARKMAQIEQMKQEQAQRQIDTSYPTDDVIDPDDEPAQGELLEDLEY
B13: SSAP_165: SEQ ID NO: 334; Robinsoniella sp. KNHs210 (protein, listed as Robinsoniella sp.)
chain: TTRTGNIKEELAKKAEGTNGDTRLTKAMSIADLIKAMEPEIKKALPEVITPERFTRMALSALNTTPKLRECTQISFLAAMMNAAQLGLEPNTPLGQAYLIPFNNKGTMECQFQIGYKGMIDLSYRNPQMQMISAQAVYENDEFKYELGLNPTLIHRPVLRGRGEVILFYGLFKLTNGGYGFEVMSKEEMDAYAKAYSKAIDSSFSPWKSNYNGMAKKTVIKQVLKYAPIKADFRKALSSDETIKNEISENMSEIHGEIIFDTDYMEESA

System: gene editing with dCas9
Assay: Screen of 322 new SSAP proteins, gene editing activity with dCas9 (Table 5)
Format: cell-based
Parameters: dCas9 with SSAP activity: scale not given here
Conditions: not given
In short: (§1)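 Read-out is gene editing activity. Candidates come from sequence data mining, are made synthetically, and are tested alongside either nuclease-active Cas9 or catalytically dead dCas9.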

First: B1
Second: B2
The “dCas9 with SSAP activity” value of the first is higher: −2.073 for the first, −2.273 for the second.

Going from B3 to B4, the “dCas9 with SSAP activity” value falls from −2.069 to −2.105.

First: B5
Second: B6
The “dCas9 with SSAP activity” value of the first is higher: −2.145 for the first, −2.230 for the second.

Compared with B7, B8 is higher in “dCas9 with SSAP activity” value: −2.360 for the first, −2.044 for the second.

Compared with B9, B10 is lower in “dCas9 with SSAP activity” value: −2.052 for the first, −2.113 for the second.

Going from B11 to B12, the “dCas9 with SSAP activity” value falls from −2.129 to −2.180.

In the case of B13, the “dCas9 with SSAP activity” value is reported as −2.157.

Same assay, conditions: normalized

Going from B1 to B2, the “dCas9 with SSAP activity (normalized)” value rises from −1.380 to −0.413.

Compared with B3, B4 is lower in “dCas9 with SSAP activity (normalized)” value: −0.685 for the first, −0.826 for the second.

Going from B5 to B6, the “dCas9 with SSAP activity (normalized)” value rises from −1.216 to −0.296.

Going from B7 to B8, the “dCas9 with SSAP activity (normalized)” value falls from −0.367 to −1.493.

Going from B9 to B10, the “dCas9 with SSAP activity (normalized)” value falls from −0.337 to −0.351.

Compared with B11, B12 is higher in “dCas9 with SSAP activity (normalized)” value: −0.311 for the first, −0.281 for the second.

For B13, the “dCas9 with SSAP activity (normalized)” value was −0.568.

System: gene editing with Cas9
Assay: Screen of 322 new SSAP proteins, gene editing activity with Cas9 (Table 5)
Format: cell-based
Parameters: Cas9 with SSAP activity: scale not given here
Conditions: not given
In short: as §1

Compared with B1, B2 is lower in “Cas9 with SSAP activity” value: 0.273 for the first, −1.798 for the second.

First: B3
Second: B4
The “Cas9 with SSAP activity” value of the first is higher: −1.201 for the first, −2.139 for the second.

Going from B5 to B6, the “Cas9 with SSAP activity” value rises from 0.197 to 1.110.

First: B7
Second: B8
The “Cas9 with SSAP activity” value of the first is lower: −2.257 for the first, 0.085 for the second.

First: B9
Second: B10
The “Cas9 with SSAP activity” value of the first is lower: −2.551 for the first, 3.010 for the second.

First: B11
Second: B12
The “Cas9 with SSAP activity” value of the first is lower: −2.670 for the first, −0.435 for the second.

With B13 the “Cas9 with SSAP activity” value was −0.918.

Same assay, conditions: normalized

Compared with B1, B2 is lower in “Cas9 with SSAP activity (normalized)” value: 0.278 for the first, −0.307 for the second.

Compared with B3, B4 is lower in “Cas9 with SSAP activity (normalized)” value: −0.666 for the first, −0.908 for the second.

First: B5
Second: B6
The “Cas9 with SSAP activity (normalized)” value of the first is lower: 0.073 for the first, 4.696 for the second.

Compared with B7, B8 is higher in “Cas9 with SSAP activity (normalized)” value: −0.341 for the first, 0.091 for the second.

First: B9
Second: B10
The “Cas9 with SSAP activity (normalized)” value of the first is lower: −0.452 for the first, 2.232 for the second.

Compared with B11, B12 is lower in “Cas9 with SSAP activity (normalized)” value: −0.476 for the first, −1.203 for the second.

In the case of B13, the “Cas9 with SSAP activity (normalized)” value is reported as −0.925.

System: gene editing with Cas9 and dCas9
Assay: Screen of 322 new SSAP proteins, activity across all experiments (Cas9 and dCas9, Table 5)
Format: cell-based
Parameters: scale not given here
Conditions: not given
In short: as §1

First: B1
Second: B2
The “Activity across all experiments” value of the first is higher: −0.900 for the first, −2.036 for the second.

First: B3
Second: B4
The “Activity across all experiments” value of the first is higher: −1.635 for the first, −2.122 for the second.

Compared with B5, B6 is higher in “Activity across all experiments” value: −0.974 for the first, −0.560 for the second.

First: B7
Second: B8
The “Activity across all experiments” value of the first is lower: −2.308 for the first, −0.980 for the second.

Compared with B9, B10 is higher in “Activity across all experiments” value: −2.301 for the first, 0.449 for the second.

First: B11
Second: B12
The “Activity across all experiments” value of the first is lower: −2.400 for the first, −1.308 for the second.

In the case of B13, the “Activity across all experiments” value is reported as −1.538.
